The source of these data is publication PMC4700671.

As a reminder, the stoichiometry N is a count of units in the complex or per binding partner.

“And” between values parts separate entries of the source, which are not always exact repeats. Equal entries are not always repeated.

Assay [1] has as its target nonmyristoylated MMTV MA (matrix protein of mouse mammary tumor virus), wild type, with C-terminal His-tag (mouse mammary tumor virus) (UniProt P10258). The experiment in a line: AUC; sedimentation velocity, protein at 5.0 mg/mL in 50 mM Na2HPO4, 300 mM NaCl, 2.5 mM TCEP, pH 6.0; 50,000 rpm, 4 °C; absorbance at 250 nm; c(s) continuous size distribution; monomer to dimer (and tetramer).

For assay [2], the target named is myristoylated MMTV MA triple mutant L11N/F12N/V15N, with C-terminal His-tag (mouse mammary tumor virus) (UniProt P10258). The assay is described as follows: AUC; sedimentation velocity, protein at 0.5 mg/mL in 50 mM Na2HPO4, 300 mM NaCl, 2.5 mM TCEP, pH 6.0; 50,000 rpm, 4 °C; absorbance at 280 nm; c(s) continuous size distribution; monomer to dimer.
The target is the same in assay [3]. The assay is described as follows: AUC; sedimentation velocity, protein at 5.0 mg/mL in 50 mM Na2HPO4, 300 mM NaCl, 2.5 mM TCEP, pH 6.0; 50,000 rpm, 4 °C; absorbance at 250 nm; c(s) continuous size distribution; monomer to dimer (and tetramer).
Assay [4] deals with myristoylated MMTV MA (matrix protein of mouse mammary tumor virus), wild type, with C-terminal His-tag (mouse mammary tumor virus) (UniProt P10258). The experiment in a line: AUC; sedimentation velocity, protein at 0.5 mg/mL in 50 mM Na2HPO4, 300 mM NaCl, 2.5 mM TCEP, pH 6.0; 50,000 rpm, 4 °C; absorbance at 280 nm; c(s) continuous size distribution; monomer to dimer.
Assay [5] shares this target. The assay is described as follows: AUC; sedimentation velocity, protein at 5.0 mg/mL in 50 mM Na2HPO4, 300 mM NaCl, 2.5 mM TCEP, pH 6.0; 50,000 rpm, 4 °C; absorbance at 250 nm; c(s) continuous size distribution; monomer to dimer (and tetramer).

As to “nonmyristoylated MMTV MA (matrix protein of mouse mammary tumor virus), wild type, with C-terminal His-tag (from UniProt P10258 2-92) (domain or fragment)”, in assay [1], the percent dimer turned out to be 26% and the stoichiometry N came to 2.
Regarding “myristoylated MMTV MA triple mutant L11N/F12N/V15N, with C-terminal His-tag (from UniProt P10258 2-92) (domain or fragment)”, in assay [2], the percent dimer is 48% and the stoichiometry N was 2. In assay [3], this substance yielded a stoichiometry N of 2.
In turn, “myristoylated MMTV MA (matrix protein of mouse mammary tumor virus), wild type, with C-terminal His-tag (from UniProt P10258 2-92) (domain or fragment)” yielded a stoichiometry N in assay [4] of 2. For the same substance, in assay [5], the percent dimer was found to be 98%; the percent tetramer was found to be 2%; the stoichiometry N was 2 and 4.
